Tests used:
[1] = molecular target: LysP7951 full-length product (FLP), produced from the wild-type lysP7951 gene (Streptococcus thermophilus phage P7951); experiment: native MS; purified LysP7951 complex (co-produced, co-purified) in 150 mM ammonium acetate, about 10 μM, nano-ESI Q-TOF, positive mode, collision energy 0 V (15 and 100 V for dissociation)
[2] = molecular target: LysP7951 full-length product (FLP), produced from the wild-type lysP7951 gene (Streptococcus thermophilus phage P7951); experiment: SEC; analytical gel filtration (Superose 6 10/300 GL, calibrated) of single purified preparations; protein buffer (50 mM HEPES, 500 mM NaCl, 1% glycerol, pH 7), 0.4 mL/min; apparent molecular masses from elution volumes
[3] = molecular target: LysP7951_(209-310) (Streptococcus thermophilus phage P7951); experiment: as above
[4] = molecular target: LysP7951_(209-310) (Streptococcus thermophilus phage P7951); experiment: SAXS; LysP7951 CTP at 1.00, 1.85, 2.70 mg/mL in protein buffer, 20°C, BM29 beamline ESRF; molecular mass estimated from the scattering data

Row | Substance | stoichiometry N (CTP subunits per FLP) [1] | stoichiometry N (CTP subunits per FLP) [2] | stoichiometry N [3] | stoichiometry N [4]
1 | LysP7951 C-terminal product (CTP), produced from the internal translation start site of the wild-type lysP7951 gene (domain or fragment) | 5 | 4 |  | 
2 | LysP7951_(209-310) (domain or fragment) |  |  | 7 subunits | 6 to 7 subunits

From PMC9430671
